Patent US12123876B2, “Antibody binding to HEG1 and use of the antibody for detection and treatment of mesothelioma” (Kanagawa Prefectural Hospital Organization, priority 2016, dated 2024)

B1: 7.6: HEG1 exon 7 fragment from amino acid No. 783 bonded to SLURPgpi; SEQ ID NO: 66 in FIG. 13 (protein)
chain: DLKSQSTPHQEKVITESKSPSLVSLPTESTKAVTTNSPLPPSLTESSTEQTLPATSTNLAQMSPTFTTTILKTSQPLMTTPGTLSSTASLVTGPIAVQTTAGKQLSLTHPEILVPQISTEGGISTERNRVIVDATSGLIPLTSVPTSAKEMTTKLGVTAEYSPASRSLGTSPSPQTTVVSTAEDLAPKSATFAVQSSTQSPTTLSSSASGSLKCYTCKEPMTSASCRTITRCKPEDTACMTTLVTVEAEYPFNQSPVVTRSCSSSCVATDPDSIGAAHLIFCCFRDLCNSELSRDGAPSLGSPGGLLLALALFLLLGVLL
B2: HEG1 2 kb: HEG1 fragment, position 677 leucine to position 1387 phenylalanine of SEQ ID NO: 35 (protein, listed as Homo sapiens)
chain: SSGPPLPLPSVSQSHHLFSSILPSTRASVHLLKSTSDASTPWSSSPSPLPVSLTTSTSAPLSVSQTTLPQSSSTPVLPRARETPVTSFQTSTMTSFMTMLHSSQTADLKSQSTPHQEKVITESKSPSLVSLPTESTKAVTTNSPLPPSLTESSTEQTLPATSTNLAQMSPTFTTTILKTSQPLMTTPGTLSSTASLVTGPIAVQTTAGKQLSLTHPEILVPQISTEGGISTERNRVIVDATSGLIPLTSVPTSAKEMTTKLGVTAEYSPASRSLGTSPSPQTTVVSTAEDLAPKSATFAVQSSTQSPTTLSSSASVNSCAVNPCLHNGECVADNTSRGYHCRCPPSWQGDDCSVDVNECLSNPCPSTAMCNNTQGSFICKCPVGYQLEKGICNLVRTFVTEFKLKRTFLNTTVEKHSDLQEVENEITKTLNMCFSALPSYIRSTVHASRESNAVVISLQTTFSLASNVTLFDLADRMQKCVNSCKSSAEVCQLLGSQRRIFRAGSLCKRKSPECDKDTSICTDLDGVALCQCKSGYFQFNKMDHSCRACEDGYRLENETCMSCPFGLGGLNCGNPYQLITVVIAAAGGGLLLILGIALIVTCCRKNKNDISKLIFKSGDFQMSPYAEYPKNPRSQEWGREAIEMHENGSTKNLLQMTDVYYSPTSVRNPELERNGLYPAYTGLPGSRHSCIFPGQYNPSFISDESRRRDYF
B3: HEG1 1 kb: HEG1 fragment, position 992 valine to position 1387 phenylalanine of SEQ ID NO: 35 (protein, listed as Homo sapiens)
chain: VNSCAVNPCLHNGECVADNTSRGYHCRCPPSWQGDDCSVDVNECLSNPCPSTAMCNNTQGSFICKCPVGYQLEKGICNLVRTFVTEFKLKRTFLNTTVEKHSDLQEVENEITKTLNMCFSALPSYIRSTVHASRESNAVVISLQTTFSLASNVTLFDLADRMQKCVNSCKSSAEVCQLLGSQRRIFRAGSLCKRKSPECDKDTSICTDLDGVALCQCKSGYFQFNKMDHSCRACEDGYRLENETCMSCPFGLGGLNCGNPYQLITVVIAAAGGGLLLILGIALIVTCCRKNKNDISKLIFKSGDFQMSPYAEYPKNPRSQEWGREAIEMHENGSTKNLLQMTDVYYSPTSVRNPELERNGLYPAYTGLPGSRHSCIFPGQYNPSFISDESRRRDYF
B4: HEG1 3 kb: HEG1 fragment, position 285 leucine to position 1387 phenylalanine of SEQ ID NO: 35 (protein, listed as Homo sapiens)
chain: LSWLHFYRTAASSPLLDLSSSSESTEKLNNSTGLQSSSVSQTKTMHVATVFTDGGPRTLRSLTVSLGPVSKTEGFPKDSRIATTSSSVLLSPSAVESRRNSRVTGNPGDEEFIEPSTENEFGLTSLRWQNDSPTFGEHQLASSSEVQNGSPMSQTETVSRSVAPMRGGEITAHWLLTNSTTSADVTGSSASYPEGVNASVLTQFSDSTVQSGGSHTALGDRSYSESSSTSSSESLNSSAPRGERSIAGISYGQVRGTAIEQRTSSDHTDHTYLSSTFTKGERALLSITDNSSSSDIVESSTSYIKISNSSHSEYSSFFHAQTERSNISSYDGEYAQPSTESPVLHTSNLPSYTPTINMPNTSVVLDTDAEFVSDSSSSSSSSSSSSSSSSSSSSGPPLPLPSVSQSHHLFSSILPSTRASVHLLKSTSDASTPWSSSPSPLPVSLTTSTSAPLSVSQTTLPQSSSTPVLPRARETPVTSFQTSTMTSFMTMLHSSQTADLKSQSTPHQEKVITESKSPSLVSLPTESTKAVTTNSPLPPSLTESSTEQTLPATSTNLAQMSPTFTTTILKTSQPLMTTPGTLSSTASLVTGPIAVQTTAGKQLSLTHPEILVPQISTEGGISTERNRVIVDATSGLIPLTSVPTSAKEMTTKLGVTAEYSPASRSLGTSPSPQTTVVSTAEDLAPKSATFAVQSSTQSPTTLSSSASVNSCAVNPCLHNGECVADNTSRGYHCRCPPSWQGDDCSVDVNECLSNPCPSTAMCNNTQGSFICKCPVGYQLEKGICNLVRTFVTEFKLKRTFLNTTVEKHSDLQEVENEITKTLNMCFSALPSYIRSTVHASRESNAVVISLQTTFSLASNVTLFDLADRMQKCVNSCKSSAEVCQLLGSQRRIFRAGSLCKRKSPECDKDTSICTDLDGVALCQCKSGYFQFNKMDHSCRACEDGYRLENETCMSCPFGLGGLNCGNPYQLITVVIAAAGGGLLLILGIALIVTCCRKNKNDISKLIFKSGDFQMSPYAEYPKNPRSQEWGREAIEMHENGSTKNLLQMTDVYYSPTSVRNPELERNGLYPAYTGLPGSRHSCIFPGQYNPSFISDESRRRDYF
B5: HEG1 full length: full length human HEG1 protein, SEQ ID NO: 35, expressed in mesothelioma cell line (protein, listed as Homo sapiens)
chain: MASPRASRWPPPLLLLLLPLLLLPPAAPGTRDPPPSPARRALSLAPLAGAGLELQLERRPEREPPPTPPRERRGPATPGPSYRAPEPGAATQRGPSGRAPRGGSADAAWKHWPESNTEAHVENITFYQNQEDFSTVSSKEGVMVQTSGKSHAASDAPENLTLLAETADARGRSGSSSRTNFTILPVGYSLEIATALTSQSGNLASESLHLPSSSSEFDERIAAFQTKSGTASEMGTERAMGLSEEWTVHSQEATTSAWSPSFLPALEMGELTTPSRKRNSSGPDLSWLHFYRTAASSPLLDLSSSSESTEKLNNSTGLQSSSVSQTKTMHVATVFTDGGPRTLRSLTVSLGPVSKTEGFPKDSRIATTSSSVLLSPSAVESRRNSRVTGNPGDEEFIEPSTENEFGLTSLRWQNDSPTFGEHQLASSSEVQNGSPMSQTETVSRSVAPMRGGEITAHWLLTNSTTSADVTGSSASYPEGVNASVLTQFSDSTVQSGGSHTALGDRSYSESSSTSSSESLNSSAPRGERSIAGISYGQVRGTAIEQRTSSDHTDHTYLSSTFTKGERALLSITDNSSSSDIVESSTSYIKISNSSHSEYSSFFHAQTERSNISSYDGEYAQPSTESPVLHTSNLPSYTPTINMPNTSVVLDTDAEFVSDSSSSSSSSSSSSSSSSSSSSGPPLPLPSVSQSHHLFSSILPSTRASVHLLKSTSDASTPWSSSPSPLPVSLTTSTSAPLSVSQTTLPQSSSTPVLPRARETPVTSFQTSTMTSFMTMLHSSQTADLKSQSTPHQEKVITESKSPSLVSLPTESTKAVTTNSPLPPSLTESSTEQTLPATSTNLAQMSPTFTTTILKTSQPLMTTPGTLSSTASLVTGPIAVQTTAGKQLSLTHPEILVPQISTEGGISTERNRVIVDATSGLIPLTSVPTSAKEMTTKLGVTAEYSPASRSLGTSPSPQTTVVSTAEDLAPKSATFAVQSSTQSPTTLSSSASVNSCAVNPCLHNGECVADNTSRGYHCRCPPSWQGDDCSVDVNECLSNPCPSTAMCNNTQGSFICKCPVGYQLEKGICNLVRTFVTEFKLKRTFLNTTVEKHSDLQEVENEITKTLNMCFSALPSYIRSTVHASRESNAVVISLQTTFSLASNVTLFDLADRMQKCVNSCKSSAEVCQLLGSQRRIFRAGSLCKRKSPECDKDTSICTDLDGVALCQCKSGYFQFNKMDHSCRACEDGYRLENETCMSCPFGLGGLNCGNPYQLITVVIAAAGGGLLLILGIALIVTCCRKNKNDISKLIFKSGDFQMSPYAEYPKNPRSQEWGREAIEMHENGSTKNLLQMTDVYYSPTSVRNPELERNGLYPAYTGLPGSRHSCIFPGQYNPSFISDESRRRDYF

Test system: SKM9-2 antibody
Experiment: Western blot reactivity of human HEG1 fragments expressed in ACC-MESO-1 with SKM9-2 antibody
Type: binding, mouse
Settings: Western blot of cell lysate
Protocol: In this Example, the mesothelioma cell line ACC-MESO-1 was allowed to express a human HEG1 fragment with the endogenous HEG1 of ACC-MESO-1 knocked down, and the reactivity with the SKM9-2 antibody was examined. Subsequently, the reactivity with the antibody was tested for the epitope region through alanine scanning, and key amino acids for binding to the antibody were determined.
Gene transfer was performed with HEG1 siRNA (H9106) (SEQ ID NOs: 40, 41) and human HEG1 for the mesothelioma cell line ACC-MESO-1, and the reactivity of the SKM9-2 was examined through Western blot analysis. A full length protein (HEG1 full length) or a fragment (HEG1 3 kb, HEG1 2 kb, or HEG1 1 kb) of the human HEG1 was used. The full length human HEG1 protein, a protein having the amino acid sequence set forth in SEQ ID NO: 35, was obtained through inserting a base sequence set forth in SEQ ID NO: 34 into pFLAG-CMV1 (Sigma-Aldrich Japan K.K.) to obtain a plasmid, transforming the plasmid, and allowing the mesothelioma cell line to express the plasmid. Fragment HEG1 3 kb was obtained through inserting a fragment corresponding to a sequence from position 285, leucine, to position 1387, phenylalanine, of SEQ ID NO: 35 into pFLAG-CMV1 (Sigma-Aldrich Japan K.K.) in an in-frame manner, and allowing the mesothelioma cell line to express the resultant. HEG1 2 kb and HEG1 1 kb were obtained through allowing the mesothelioma cell line to express products similarly obtained from a fragment corresponding to a sequence from position 677, leucine, to position 1387, phenylalanine, of SEQ ID NO: 35 and a fragment corresponding to a sequence from position 992, valine, to position 1387, phenylalanine, of SEQ ID NO: 35, respectively. Each cell lysate was analyzed through Western blot with the SKM9-2 antibody.
Further, the region in exon 7 of HEG1 was analyzed in detail. The amino acid sequence of a part of exon 7 of HEG1 was connected to the N-terminal side of a protein obtained by connecting a GPI anchor signal to human SLURP1 (SEQ ID NO: 42; hereinafter referred to as “SLURPgpi”) to produce a fusion protein, and the reactivity of the SKM9-2 was examined through Western blot analysis with the fusion protein. A signal sequence (SEQ ID NO: 43) was added to the N-terminal of the fusion protein before expression.
Used fusion proteins of a partial sequence of exon 7 of HEG1 and SLURPgpi were as follows: • a fragment obtained by bonding a fragment from amino acid No. 783, aspartic acid, to amino acid No. 991, serine, to SLURPgpi (7.6); • a fragment obtained by bonding a fragment from amino acid No. 832, glutamine, to amino acid No. 991, serine, to SLURPgpi (7.7); • a fragment obtained by bonding a fragment from amino acid No. 886, glutamine, to amino acid No. 991, serine, to SLURPgpi (7.8); • a fragment obtained by bonding a fragment from amino acid No. 941, alanine, to amino acid No. 991, serine, to SLURPgpi (7.9); • a fragment obtained by bonding SEQ ID NO: 44 to SLURPgpi (7.61); • a fragment obtained by bonding SEQ ID NO: 45 to SLURPgpi (7.62); • a fragment obtained by bonding SEQ ID NO: 46 to SLURPgpi (7.63); • a fragment obtained by bonding SEQ ID NO: 47 to SLURPgpi (7.64); • a fragment obtained by bonding SEQ ID NO: 48 to SLURPgpi (7.623); • a fragment obtained by bonding SEQ ID NO: 49 to SLURPgpi (7.6231); • a fragment obtained by bonding SEQ ID NO: 50 to SLURPgpi (7.6232); • a fragment obtained by bonding SEQ ID NO: 51 to SLURPgpi (7.6241); and • a fragment obtained by bonding SEQ ID NO: 52 to SLURPgpi (7.6242).

Molecule	Binding to SKM9-2 antibody (positive/negative)	Binding to SKM9-2 antibody (positive/negative) (listed as fragment 7.6)
B1	positive	positive signal
B2	positive	–
B3	negative	–
B4	positive	–
B5	positive	–
